Source: article PMC2997501, “Different Residues on the Surface of the Methanothermobacter thermautotrophicus MCM Helicase Interact with Single- and Double-Stranded DNA” (Archaea, 2010)

B1: Methanothermobacter thermautotrophicus MCM protein, wild-type (enzyme, UniProt O27798 1-666, looked up)
chain: MMKTVDKSKTLTKFEEFFSLQDYKDRVFEAIEKYPNVRSIEVDYLDLEMFDPDLADLLIEKPDDVIRAAQQAIRNIDRLRKNVDLNIRFSGISNVIPLRELRSKFIGKFVAVDGIVRKTDEIRPRIVKAVFECRGCMRHHAVTQSTNMITEPSLCSECGGRSFRLLQDESEFLDTQTLKLQEPLENLSGGEQPRQITVVLEDDLVDTLTPGDIVRVTGTLRTVRDERTKRFKNFIYGNYTEFLEQEFEELQISEEDEEKIKELAGDPNIYEKIIRSTAPSIHGYREVKEAIALQLFGGTGKELDDKTRLRGDIHILIVGDPGIGKSQMLKYVSKLAPRGIYTSGKGTSGVGLTAAAVRDEFGGWSLEAGALVLGDKGNVCVDELDKMREEDRSAIHEALEQQTISIAKAGIMATLNSRCSVLAAANPKFGRFDSYKSIAEQIDLPSTILSRFDLIFVVEDKPDEEKDRELARHILKTHKEDHMPFEIDPELLRKYIAYARKNVRPVLTDEAMQVLEDFYVSMRASAADEDSPVPITARQLEALVRLSEASAKIKLKEHVEAEDARKAIKLSQACLKQVGYDPETGKIDIDKVEGRTPKSERDKFRLLLELIKEYEDDYGGRAPTNILITEMMDRYNVSEEKVEELIRILKDKGAIFEPARGYLKIV
notes: MCM helicase of Methanothermobacter thermautotrophicus, full-length enzyme, cloned in pET-21a (NdeI/XhoI); the text speaks of hexamers, dodecamers and filaments in equilibrium (cited work); also called wild-type enzyme; minichromosome maintenance helicase; source: E. coli DE3 codon plus cells, purified on a Ni-column
B2: Methanothermobacter thermautotrophicus MCM protein, P210G mutant (enzyme, UniProt O27798 1-666, looked up)
chain: MMKTVDKSKTLTKFEEFFSLQDYKDRVFEAIEKYPNVRSIEVDYLDLEMFDPDLADLLIEKPDDVIRAAQQAIRNIDRLRKNVDLNIRFSGISNVIPLRELRSKFIGKFVAVDGIVRKTDEIRPRIVKAVFECRGCMRHHAVTQSTNMITEPSLCSECGGRSFRLLQDESEFLDTQTLKLQEPLENLSGGEQPRQITVVLEDDLVDTLTGGDIVRVTGTLRTVRDERTKRFKNFIYGNYTEFLEQEFEELQISEEDEEKIKELAGDPNIYEKIIRSTAPSIHGYREVKEAIALQLFGGTGKELDDKTRLRGDIHILIVGDPGIGKSQMLKYVSKLAPRGIYTSGKGTSGVGLTAAAVRDEFGGWSLEAGALVLGDKGNVCVDELDKMREEDRSAIHEALEQQTISIAKAGIMATLNSRCSVLAAANPKFGRFDSYKSIAEQIDLPSTILSRFDLIFVVEDKPDEEKDRELARHILKTHKEDHMPFEIDPELLRKYIAYARKNVRPVLTDEAMQVLEDFYVSMRASAADEDSPVPITARQLEALVRLSEASAKIKLKEHVEAEDARKAIKLSQACLKQVGYDPETGKIDIDKVEGRTPKSERDKFRLLLELIKEYEDDYGGRAPTNILITEMMDRYNVSEEKVEELIRILKDKGAIFEPARGYLKIV
notes: MCM helicase of Methanothermobacter thermautotrophicus, derivative of the full-length enzyme; source: E. coli DE3 codon plus cells, purified on a Ni-column
B3: Methanothermobacter thermautotrophicus MCM protein, Q176A mutant (enzyme, UniProt O27798 1-666, looked up)
chain: MMKTVDKSKTLTKFEEFFSLQDYKDRVFEAIEKYPNVRSIEVDYLDLEMFDPDLADLLIEKPDDVIRAAQQAIRNIDRLRKNVDLNIRFSGISNVIPLRELRSKFIGKFVAVDGIVRKTDEIRPRIVKAVFECRGCMRHHAVTQSTNMITEPSLCSECGGRSFRLLQDESEFLDTATLKLQEPLENLSGGEQPRQITVVLEDDLVDTLTPGDIVRVTGTLRTVRDERTKRFKNFIYGNYTEFLEQEFEELQISEEDEEKIKELAGDPNIYEKIIRSTAPSIHGYREVKEAIALQLFGGTGKELDDKTRLRGDIHILIVGDPGIGKSQMLKYVSKLAPRGIYTSGKGTSGVGLTAAAVRDEFGGWSLEAGALVLGDKGNVCVDELDKMREEDRSAIHEALEQQTISIAKAGIMATLNSRCSVLAAANPKFGRFDSYKSIAEQIDLPSTILSRFDLIFVVEDKPDEEKDRELARHILKTHKEDHMPFEIDPELLRKYIAYARKNVRPVLTDEAMQVLEDFYVSMRASAADEDSPVPITARQLEALVRLSEASAKIKLKEHVEAEDARKAIKLSQACLKQVGYDPETGKIDIDKVEGRTPKSERDKFRLLLELIKEYEDDYGGRAPTNILITEMMDRYNVSEEKVEELIRILKDKGAIFEPARGYLKIV
notes: as for B2

Target: the molecule itself
Assay: SEC; 100 micrograms of protein on a superose-6 column (HR10/30); 20 mM Tris-HCl pH 7.5, 150 mM NaCl, 10% glycerol; 22°C, 0.2 ml/min; A280; size markers thyroglobulin, ferritin, albumin, ovalbumin

Binding result, binds:
B1
B2
B3
